Reference: paper PMC6925217, “PtomtAPX, a mitochondrial ascorbate peroxidase, plays an important role in maintaining the redox balance of Populus tomentosa Carr” (Scientific Reports, 2019)

Substrate: O=C1O[C@H]([C@@H](O)CO)C(O)=C1O
Experiment: steady-state Michaelis-Menten kinetics
Assay type: biochemical, Populus tomentosa
Conditions: fixed H2O2 concentration
From the text: steady-state Michaelis-Menten kinetics on PtosAPX

B1: PtosAPX (Populus tomentosa) (protein)
chain: ASDAAQLKSAREDIKELLKSKFCHPILVRLGWHDAGTYNKNIEEWAKRGGANGSLRFEIELKHAANAGLVDALKLIQPIKDKYSGVTYADLFQMASATAIEEAGGPKIPMKYGRVDVSVPDECPEEGRLPDAGPPKPADHLRGVFYRMGLDDKEIVALSGAHTLGRSRPERSGWGKPETKYTKNGPGAPGGQSWTAEWLKFDNSYFKDIKERKDEDLLVLPTDAALFEDPSFKVYAEKYAEDKEAFFKDYAEAHAKLSNLGAKFDPPEGIMLDGVAGEKFVAAKYSSGKD
notes: ORF minus N-terminal targeting peptide, pET30a, E. coli, purified; 39 kDa on SDS-PAGE; full ORF 1,086 bp; homologue of P. trichocarpa JGI 209946
- Km: 4.30 ± 1.81 mM
- Vmax: 850 µM/min
- kcat: 15000 s⁻¹
- kcat/Km: 3.48e+06 M⁻¹ s⁻¹
